Measurements as given in US20250368744A1 (CONCEPT TO MEDICINE BIOTECH, published 2025).
Numbering of substitutions follows the chain as printed. Like-named read-outs stand apart in the source and are kept apart here. Values belong to the binder of their own block, whether it stands above or below them.

Experiments:
[1] = molecular target: T1, human C-C motif chemokine receptor 8 (CCR8) (human, UniProt P51685 1-355); test: cell-based or functional assay
[2] = molecular target: T1, human C-C motif chemokine receptor 8 …; test: FACS (MFI-PE) on HEK293 hCCR8 cells
[3] = molecular target: T1, human C-C motif chemokine receptor 8 …; test: cell-based or functional assay; remark: listed apart in the source
human CCR4 = molecular target: T2, human CCR4 (human, UniProt P51679 1-360); test: FACS, CHO-K1 hCCR4 cells
T2 construct: whole, on cells; also called hCCR4
T2 sequence (looked up): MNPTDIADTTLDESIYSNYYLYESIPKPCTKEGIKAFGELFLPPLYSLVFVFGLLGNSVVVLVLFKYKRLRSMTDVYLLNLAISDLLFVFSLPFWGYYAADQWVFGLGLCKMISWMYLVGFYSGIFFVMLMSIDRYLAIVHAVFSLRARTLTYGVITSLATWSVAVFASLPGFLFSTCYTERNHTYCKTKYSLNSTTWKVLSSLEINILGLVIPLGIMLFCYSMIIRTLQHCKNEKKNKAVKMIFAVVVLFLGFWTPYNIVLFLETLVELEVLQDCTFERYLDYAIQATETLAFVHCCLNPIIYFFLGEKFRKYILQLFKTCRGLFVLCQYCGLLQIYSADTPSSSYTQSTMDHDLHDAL
Description: (§1) Briefly, HEK293 hCCR8 cell line, CHO-K1 cyno CCR8 cell line or CHO-K1 hCCR4 cell line was first incubated with 5-fold serially diluted and 8 doses with the above 10 chimeric Abs and hlgG1 control starting from 100 nM at 4° C. for 30 mins. After washing by FACS buffer, PE Goat anti-Human IgG Fc Secondary Antibody (eBioscience™, Invitrogen) was added to each well and incubated at 4° C. for 30 mins. Samples were washed twice with FACS buffer. The mean florescence intensity (MFI) of PE was evaluated by MACSQuant Analyzer 16.

[4] = molecular target: T1, human C-C motif chemokine receptor 8 …; test: cell-based or functional assay; remark: listed apart in the source
[5] = molecular target: T1, human C-C motif chemokine receptor 8 …; test: cell-based or functional assay; remark: listed apart in the source
[6] = molecular target: T1, human C-C motif chemokine receptor 8 …; test: cell-based or functional assay; remark: listed apart in the source
[7] = molecular target: T1, human C-C motif chemokine receptor 8 …; test: cell-based or functional assay; remark: listed apart in the source
[8] = molecular target: T1, human C-C motif chemokine receptor 8 …; test: FACS (MFI-PE) on HEK293 hCCR8 cells; remark: listed apart in the source
Description: as §1

[9] = molecular target: T1, human C-C motif chemokine receptor 8 …; test: FACS (MFI-PE) on CHO-K1 hCCR8 cells
cyno CCR8 [10] = molecular target: T3, cyno CCR8 (cynomolgus, UniProt G7NYJ2 1-355); test: FACS (MFI-PE) on CHO-K1 cyno CCR8 cells
T3 construct: whole, on cells; also called cynomolgus CCR8 protein
T3 sequence (G7NYJ2 entry or part of it): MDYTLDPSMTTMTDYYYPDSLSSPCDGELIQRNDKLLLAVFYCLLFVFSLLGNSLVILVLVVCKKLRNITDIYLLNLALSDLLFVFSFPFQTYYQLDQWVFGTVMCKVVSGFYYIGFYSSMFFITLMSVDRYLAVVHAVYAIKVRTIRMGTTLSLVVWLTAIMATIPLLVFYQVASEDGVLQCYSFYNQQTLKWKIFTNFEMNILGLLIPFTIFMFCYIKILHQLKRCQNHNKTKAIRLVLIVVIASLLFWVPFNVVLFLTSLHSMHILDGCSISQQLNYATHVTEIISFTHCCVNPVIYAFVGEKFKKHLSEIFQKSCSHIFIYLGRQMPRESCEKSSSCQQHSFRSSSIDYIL
Description: as §1

cyno CCR8 [11] = molecular target: T3, cyno CCR8; test: FACS (MFI-PE) on CHO-K1 cyno CCR8 cells; remark: listed apart in the source
[12] = molecular target: T1, human C-C motif chemokine receptor 8 …; test: cell-based or functional assay; remark: listed apart in the source
[13] = molecular target: T1, human C-C motif chemokine receptor 8 …; test: cell-based or functional assay; remark: listed apart in the source
[14] = molecular target: T1, human C-C motif chemokine receptor 8 …; test: FACS (MFI PE) on HEK293 hCCR8 cells

T1 sequence (P51685 whole entry): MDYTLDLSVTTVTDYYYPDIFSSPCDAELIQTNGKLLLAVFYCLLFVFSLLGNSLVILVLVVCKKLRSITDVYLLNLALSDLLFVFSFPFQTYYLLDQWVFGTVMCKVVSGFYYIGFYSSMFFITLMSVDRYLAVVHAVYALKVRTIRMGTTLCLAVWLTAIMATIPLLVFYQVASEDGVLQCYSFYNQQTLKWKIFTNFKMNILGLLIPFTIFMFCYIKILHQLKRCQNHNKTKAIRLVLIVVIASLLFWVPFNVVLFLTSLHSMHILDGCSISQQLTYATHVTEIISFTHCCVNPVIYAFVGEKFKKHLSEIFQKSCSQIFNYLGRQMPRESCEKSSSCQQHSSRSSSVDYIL

B1: Hu195H8D10-1 NG-NA (antibody, V domains shown)
VH: EVQLVESGGGLVQPGGSLRLSCAASGFNFNTYVMNWVRQAPGKGLEWVGRIRTKSNNYATYYADSVKDRFTISRDDSKNSLYLQMNSLKTEDTAVYYCARGTITRLGGGLDYWGQGTLVTVSS
VL: DIVMTQSPLSLPVTPGEPASISCRSSKRLLHSNANTYLYWYLQKPGQSPQLLIYRMSNLASGVPDRFSGSGSGTDFTLKISRVEAEDVGVYYCMQHLEYPFTFGGGTKLEIK
notes: humanized, PTM site removed
IC50, hCCL1-induced beta-arrestin recruitment (RLU), CHO-K1 hCCR8 cells [1]: 1.52 nM
EC50 [2]: 0.033 nM

B4: 195H8D10 (antibody, V domains shown)
VH: EVQLVGSGGGLVQPKGSLKLSCAASGFNFNTYVMNWVRQAPGKGLEWVARIRTKSNNYATYYADSVKDRFTISRDDSESKLYLQMNNLKTEDTAMYYCVSGTITRLGGGLDYWGQGTSVTVSS
VL: DIVMTQAAPSVPVTPGESVSISCRSSKRLLHSNGNTYLYWFLQRPGQSPQLLIYRMSNLASGVPDRFSGSGSGTAFTLRISRVEAEDVGVYYCMQHLEYPFTFGGGTKLEIK
notes: tested as chimeric mAb; also called 195H8D10-C
binding result (human CCR4): no binding (tested: 100 nM (highest concentration tested))
IC50, hCCL1-induced migration of BaF3 hCCR8 cells (RLU) [cont'd) C] [4]: 0.478 nM
IC50, hCCL1-induced beta-arrestin recruitment (RLU), CHO-K1 hCCR8 cells [5]: 3.48 nM
IC50, hCCL1-induced Ca2+ flux (stimulation %), Chem-1 hCCR8 cells [lower graph] [6]: 1.62 nM
IC50, hCCL1-induced beta-arrestin recruitment (RLU), CHO-K1 hCCR8 cells [7]: 0.55 nM
IC50, hCCL1-induced Ca2+ flux (stimulation %), Chem-1 hCCR8 cells [3]: 0.33 nM
EC50 [8]: 0.0746 nM
EC50 [9]: 0.211 nM
EC50 [2]: 0.041 nM
EC50 (cyno CCR8 [10]): 0.37 nM
EC50 (cyno CCR8 [11]): 0.378 nM

B10: 84D1-2H3 (antibody, V domains shown)
VH: EVQLQQSGPVLVKPGASVKMSCKASGYTFTDYYVNWVKKSHGKSPEWIGIIKPYNGGTSYNQKFKGKATLTVDKSSSTVYMELNSLTSEDSAVYHCARFAYSRNPYAMDYWGQGTSVTVSS
VL: DVLLTQTPLSLPVSLGDQASISCRSSQSIVHSTGNTYLEWYLQKPGQSPKVLIYKVSTRFSGVPDRFSGSGSGTDFTLKISRVEAEDLGVYYCFQGSHVPPTFGGGTKLEIK
notes: tested as chimeric mAb of the mouse hybridoma clone
binding result (human CCR4): no binding (tested: 100 nM (highest concentration tested))
IC50, hCCL1-induced beta-arrestin recruitment (RLU), CHO-K1 hCCR8 cells; fitted value, points scatter between about 24000 and 33000 RLU with no clear inhibition [5]: 0.206 nM
IC50, hCCL1-induced Ca2+ flux (stimulation %), Chem-1 hCCR8 cells; fitted value, the curve stays at about 93 to 100 % beside hIgG1 [upper graph] [6]: 22 nM
EC50 [8]: 0.0473 nM
EC50 (cyno CCR8 [10]): 0.0273 nM

B11: 96G3-1F10 (antibody, V domains shown)
VH: DLQLKESGPGLVKPSQSLSLTCSVTGYSITSGYYWNWIRQFPGNKLEWMGFISYDGNNNYNPSLKNRISITRDTSKNQFFLNVKSVTTEDTATYYCSRATGLRKAWFAYWGQGTLVTVSA
VL: DIQMTQSSSYLSVSLGGRVTITCKASDHINNWLAWYQQKPGNAPRLLISDTTSLGTGVPSRFRGSGSGKDYTLSITSLQTEDVATYFCQQYWSYPYTFGGGTKLEIR
notes: tested as chimeric mAb
binding result (human CCR4): no binding (tested: 100 nM (highest concentration tested))
IC50, hCCL1-induced migration of BaF3 hCCR8 cells (RLU) [cont'd) C] [4]: 5.28 nM
IC50, hCCL1-induced beta-arrestin recruitment (RLU), CHO-K1 hCCR8 cells [5]: 9.01 nM
IC50, hCCL1-induced Ca2+ flux (stimulation %), Chem-1 hCCR8 cells [upper graph] [6]: 15.2 nM
EC50 [8]: 0.109 nM
EC50 (cyno CCR8 [10]): 0.0853 nM

B13: 4A19 (antibody, V domains shown)
VH: QVQLVQSGAEVKKPGASVKVSCKASGYTFTDSEMHWVRQATGQGLEWMGAIQPETGGTAYNQKFKARVTMTRDTSISTAYMELSSLRSEDTAVYYCARRRRNFDYWGQGTLVTVSS
VL: DIVMTQTPLSLSVTPGQPASISCRSSQSLFHSSGNTYLHWYLQKPGQPPQLLIYKVSNRFSGVPDRFSGSGSGTDFTLKISRVEAEDVGVYYCSQSTHVPFTFGQGTKLEIKR
IC50, hCCL1-induced beta-arrestin recruitment (% stimulation), CHO-K1 hCCR8 cells [12]: 1.68 nM
IC50, hCCL1-induced Ca2+ flux (% stimulation), Chem-1 hCCR8 cells [13]: 12.9 nM
EC50 [14]: 0.21 nM

Further lines, with some results ahead:

IC50, hCCL1-induced beta-arrestin recruitment (RLU), CHO-K1 hCCR8 cells [1]: 1.74 nM
IC50, hCCL1-induced Ca2+ flux (stimulation %), Chem-1 hCCR8 cells [3]: 0.21 nM
EC50 [2]: 0.052 nM
B2: Hu200C9B9-3 NG-NA (antibody, V domains shown)
VH: B1 VH with N28S, Y61F, A63V, G108A
VL: B1 VL with R28S, D75A
notes: humanized, PTM site removed

IC50, hCCL1-induced beta-arrestin recruitment (RLU), CHO-K1 hCCR8 cells [1]: 5.25 nM
IC50, hCCL1-induced Ca2+ flux (stimulation %), Chem-1 hCCR8 cells [3]: 0.49 nM
EC50 [2]: 0.092 nM
B3: Hu195H8D10-7 NG-NA (antibody, V domains shown)
VH: B1 VH with G49A, A99V, R100S
VL: B1 VL with D75A
notes: humanized, PTM site removed

IC50, hCCL1-induced migration of BaF3 hCCR8 cells (RLU) [cont'd) C] [4]: 0.721 nM
IC50, hCCL1-induced Ca2+ flux (stimulation %), Chem-1 hCCR8 cells [lower graph] [6]: 1.55 nM
EC50 [8]: 0.0769 nM
B5: 187B5F10 (antibody, V domains shown)
VH: B4 VH with L110M
VL: B4 VL
notes: tested as chimeric mAb
binding result (human CCR4): no binding (tested: 100 nM (highest concentration tested))

IC50, hCCL1-induced migration of BaF3 hCCR8 cells (RLU) [cont'd) C] [4]: 0.798 nM
IC50, hCCL1-induced beta-arrestin recruitment (RLU), CHO-K1 hCCR8 cells [5]: 0.771 nM
IC50, hCCL1-induced Ca2+ flux (stimulation %), Chem-1 hCCR8 cells [lower graph] [6]: 1.89 nM
IC50, hCCL1-induced beta-arrestin recruitment (RLU), CHO-K1 hCCR8 cells [7]: 0.143 nM
IC50, hCCL1-induced beta-arrestin recruitment (RLU), CHO-K1 hCCR8 cells [1]: 3.02 nM
IC50, hCCL1-induced Ca2+ flux (stimulation %), Chem-1 hCCR8 cells [3]: 0.55 nM
EC50 [8]: 0.0741 nM
EC50 [9]: 0.132 nM
EC50 [2]: 0.05 nM
EC50 (cyno CCR8 [10]): 3.16 nM
EC50 (cyno CCR8 [11]): 1.53 nM
B6: 200C9B9 (antibody, V domains shown)
VH: B4 VH with G6E, N28S, E46N, Y61F, A63V, S79N, K80M, T90I, M95I, G108A
VL: B4 VL with R28S
notes: tested as chimeric mAb; also called 200C9B9-C
binding result (human CCR4): no binding (tested: 100 nM (highest concentration tested))

EC50 [9]: 0.207 nM
EC50 (cyno CCR8 [11]): 14.6 nM
B7: 200C9B9-C2 (antibody, V domains shown)
VH: B4 VH with G6E, N28S, E46N, Y61F, A63V, S79N, K80M, T90I, M95I, G108A
VL: B4 VL with R28S, G34A
notes: also called 200C9B9 VH with 200C9B9 VL NG-NA

IC50, hCCL1-induced beta-arrestin recruitment (RLU), CHO-K1 hCCR8 cells [7]: 0.288 nM
EC50 (cyno CCR8 [11]): 0.517 nM
B8: 195H8D10-C2 (antibody, V domains shown)
VH: B4 VH
VL: B4 VL with G34A
notes: also called 195H8D10 VH with 195H8D10 VL NG-NA

IC50, hCCL1-induced migration of BaF3 hCCR8 cells (RLU) [cont'd) C] [4]: 2.67 nM
IC50, hCCL1-induced beta-arrestin recruitment (RLU), CHO-K1 hCCR8 cells [5]: 11.2 nM
IC50 (read off the curve), hCCL1-induced Ca2+ flux (stimulation %), Chem-1 hCCR8 cells [upper graph] [6]: ~2 nM
IC50, hCCL1-induced Ca2+ flux (stimulation %), Chem-1 hCCR8 cells [lower graph] [6]: 12.1 nM
EC50 [8]: 0.17 nM
EC50 (cyno CCR8 [10]): 0.122 nM
B9: 86D4E12A5 (antibody, V domains shown)
VH: DLQLKESGPGLVKPSQSLSLTCSVTGYSITSGYYWNWIRQLPGNKLEWMGYISFDGSNNYNPSLKTRISITRDTSKNQFFLKLNSVTSEDTATYFCARLRGLLLGHFDVWGTGTTVTVSS
VL: DVQMTQSSSYLSVPLGGRVTITCKASDHINNRLAWYQQKPGNAPRLLISGATKLETGIPSRFRGSGSGKDYTLSIFSLQTEDVATYYCQQYWSTSYTFGGGTKLELR
notes: tested as chimeric mAb
binding result (human CCR4): no binding (tested: 100 nM (highest concentration tested))

IC50, hCCL1-induced beta-arrestin recruitment (RLU), CHO-K1 hCCR8 cells [5]: 96.9 nM
IC50, hCCL1-induced Ca2+ flux (stimulation %), Chem-1 hCCR8 cells [upper graph] [6]: 25.9 nM
EC50 [8]: 0.117 nM
EC50 (cyno CCR8 [10]): 0.118 nM
B12: 101D5G10G4 (antibody, V domains shown)
VH: B11 VH with F51Y, V83L, K84N
VL: B11 VL
notes: tested as chimeric mAb
binding result (human CCR4): no binding (tested: 100 nM (highest concentration tested))
